Starred links: 1 amine or outer side, 2 acyl side, 3 side chain; linkers in the order of their positions; H or OH if unused. Positions of bridges follow the written chain, without caps; N, C: chain ends. Non-standard residues stand in square brackets, D forms with d. Groups on a side chain read outwards from the residue. Primed or numbered codes have the meaning given here. *: point of attachment. APAc″ = 2-(4-(amino)piperidin-1-yl)acetic acid, NC1CCN(CC(=O)*)CC1; DOTA = O=C(O)CN1CCN(CC(=O)O)CCN(CC(=O)*)CCN(CC(=O)O)CC1; Ttds(3) = NCCCOCCOCCOCCCNC(=O)CCC(=O)*; mXylylene = c1cc(C[*:1])cc(C[*:2])c1; 3Amb = NCc1cccc(C(=O)O)c1; dNMeA = CN[C@H](C)C(=O)O; 4Amc = not defined here; AEEA = NCCOCCOCC(=O)O; Ttds″ = Ttds spacer; Sar = CNCC(=O)O
Target: human carbonic anhydrase 9 (CAIX) (human, UniProt Q16790 38-459)
Test: FACS competition on HT-29 cells against tracer 3BP-2776; pIC50 category A = pIC50 >8.0
Procedure: CAIX-expressing human HT-29 colorectal cancer cells (DSMZ, RRID: CVCL_0320) were cultured in McCoys's 5A modified medium (Biochrom, #F1015) including 10% fetal calf serum (FCS), 2 mM L-glutamine, 100 U/ml penicillin and 100 μg/mL streptomycin. Cells were detached with Accutase (Biolegend, #423201) and washed in FACS buffer (PBS including 1% FCS). Cells were diluted in FACS buffer to a final concentration of 500.000 cells per ml. 200 μL of the cell suspension were transferred to a u-shaped non-binding 96-well plate (Greiner) and cells were washed in ice-cold FACS buffer.
When biotinylated compounds were used an additional incubation step with 1 μg/mL APC-Streptavidin (Miltenyi; #130-106-791) in 50 μL FACS buffer for 30 minutes on ice was performed.
Cells were washed twice with ice-cold FACS buffer and analyzed in an Attune NxT flow cytometer (Thermo Fisher). Median fluorescence intensities (MFI) of the APC/Cy5-channel were calculated by Attune NxT software.

Row | pIC50 [pic50] | Binder
1 | > 8 | Ac-K(DOTA)VYCE[dP]DWLTWSC-NH2 (linker 4-13 via 3MeBn, also called Ac-Lys(DOTA)-Val-Tyr-[Cys(3MeBn)-Glu-pro-Asp-Trp-Leu-Thr-Trp-Ser-Cys]-NH2) [3BP-3840]
2 | > 8 | Ac-K([AEEA-DOTA])VYCE[dP]DWLTWAC-NH2 (linker 4-13 via mXylylene, also called Ac-Lys(DOTA-O2Oc)-Val-Tyr-[Cys(3MeBn)-Glu-pro-Asp-Trp-Leu-Thr-Trp-Ala-Cys]-NH2) [3BP-3428]
3 | > 8 | Ac-VYCE[Sar]DWLGWQC-NH2 (linker 3-12 via mXylylene; SMILES CC(=O)N[C@H](C(=O)N[C@@H](Cc1ccc(O)cc1)C(=O)N[C@H]1CSCc2cccc(c2)CSC[C@@H](C(N)=O)NC(=O)[C@H](CCC(N)=O)NC(=O)[C@H](Cc2c[nH]c3ccccc23)NC(=O)CNC(=O)[C@H](CC(C)C)NC(=O)[C@H](Cc2c[nH]c3ccccc23)NC(=O)[C@H](CC(=O)O)NC(=O)CN(C)C(=O)[C@H](CCC(=O)O)NC1=O)C(C)C, also called Ac-Val-Tyr-[Cys(3MeBn)-Glu-Nmg-Asp-Trp-Leu-Gly-Trp-Gln-Cys]-NH2) [3BP-3307]
4 | > 8 | Ac-VYCE[Sar]DWLTWGC-NH2 (linker 3-12 via mXylylene; SMILES CC(=O)N[C@H](C(=O)N[C@@H](Cc1ccc(O)cc1)C(=O)N[C@H]1CSCc2cccc(c2)CSC[C@@H](C(N)=O)NC(=O)CNC(=O)[C@H](Cc2c[nH]c3ccccc23)NC(=O)[C@H]([C@@H](C)O)NC(=O)[C@H](CC(C)C)NC(=O)[C@H](Cc2c[nH]c3ccccc23)NC(=O)[C@H](CC(=O)O)NC(=O)CN(C)C(=O)[C@H](CCC(=O)O)NC1=O)C(C)C, also called Ac-Val-Tyr-[Cys(3MeBn)-Glu-Nmg-Asp-Trp-Leu-Thr-Trp-Gly-Cys]-NH2) [3BP-3304]
5 | > 8 | {DOTA-3Amb}-VYCE[dP]DWLTWAC-NH2 (linker 3-12 via mXylylene; SMILES CC(C)C[C@@H]1NC(=O)[C@H](Cc2c[nH]c3ccccc23)NC(=O)[C@H](CC(=O)O)NC(=O)[C@H]2CCCN2C(=O)[C@H](CCC(=O)O)NC(=O)[C@@H](NC(=O)[C@H](Cc2ccc(O)cc2)NC(=O)[C@@H](NC(=O)c2cccc(CNC(=O)CN3CCN(CC(=O)O)CCN(CC(=O)O)CCN(CC(=O)O)CC3)c2)C(C)C)CSCc2cccc(c2)CSC[C@@H](C(N)=O)NC(=O)[C@H](C)NC(=O)[C@H](Cc2c[nH]c3ccccc23)NC(=O)[C@H]([C@@H](C)O)NC1=O, also called DOTA-Mamb-Val-Tyr-[Cys(3MeBn)-Glu-pro-Asp-Trp-Leu-Thr-Trp-Ala-Cys]-NH2) [3BP-3429]
6 | > 8 | Ac-VYCE[dA]DWLTWGC-NH2 (linker 3-12 via mXylylene; SMILES CC(=O)N[C@H](C(=O)N[C@@H](Cc1ccc(O)cc1)C(=O)N[C@H]1CSCc2cccc(c2)CSC[C@@H](C(N)=O)NC(=O)CNC(=O)[C@H](Cc2c[nH]c3ccccc23)NC(=O)[C@H]([C@@H](C)O)NC(=O)[C@H](CC(C)C)NC(=O)[C@H](Cc2c[nH]c3ccccc23)NC(=O)[C@H](CC(=O)O)NC(=O)[C@@H](C)NC(=O)[C@H](CCC(=O)O)NC1=O)C(C)C, also called Ac-Val-Tyr-[Cys(3MeBn)-Glu-ala-Asp-Trp-Leu-Thr-Trp-Gly-Cys]-NH2) [3BP-3284]
7 | > 8 | {DOTA-4Amc}-VYCE[dP]DWLTWAC-NH2 (linker 3-12 via mXylylene; reading uncertain, also called DOTA-4Amc-Val-Tyr-[Cys(3MeBn)-Glu-pro-Asp-Trp-Leu-Thr-Trp-Ala-Cys]-NH2) [3BP-3430]
8 | > 8 | Ac-VYCE[Sar]DWLTWAC-NH2 (linker 3-12 via mXylylene; SMILES CC(=O)N[C@H](C(=O)N[C@@H](Cc1ccc(O)cc1)C(=O)N[C@H]1CSCc2cccc(c2)CSC[C@@H](C(N)=O)NC(=O)[C@H](C)NC(=O)[C@H](Cc2c[nH]c3ccccc23)NC(=O)[C@H]([C@@H](C)O)NC(=O)[C@H](CC(C)C)NC(=O)[C@H](Cc2c[nH]c3ccccc23)NC(=O)[C@H](CC(=O)O)NC(=O)CN(C)C(=O)[C@H](CCC(=O)O)NC1=O)C(C)C, also called Ac-Val-Tyr-[Cys(3MeBn)-Glu-Nmg-Asp-Trp-Leu-Thr-Trp-Ala-Cys]-NH2) [3BP-3313]
9 | > 8 | {DOTA-APAc″}-VYCE[dP]DWLTWAC-NH2 (linker 3-12 via mXylylene, also called DOTA-APAc-Val-Tyr-[Cys(3MeBn)-Glu-pro-Asp-Trp-Leu-Thr-Trp-Ala-Cys]-NH2) [3BP-3432]
10 | > 8 | Ac-VYCE[dP]DWLTWAC-NH2 (linker 3-12 via mXylylene; SMILES CC(=O)N[C@H](C(=O)N[C@@H](Cc1ccc(O)cc1)C(=O)N[C@H]1CSCc2cccc(c2)CSC[C@@H](C(N)=O)NC(=O)[C@H](C)NC(=O)[C@H](Cc2c[nH]c3ccccc23)NC(=O)[C@H]([C@@H](C)O)NC(=O)[C@H](CC(C)C)NC(=O)[C@H](Cc2c[nH]c3ccccc23)NC(=O)[C@H](CC(=O)O)NC(=O)[C@H]2CCCN2C(=O)[C@H](CCC(=O)O)NC1=O)C(C)C, also called Ac-Val-Tyr-[Cys(3MeBn)-Glu-pro-Asp-Trp-Leu-Thr-Trp-Ala-Cys]-NH2) [3BP-3282]

Further lines, the binder ahead of its results:

Row | Binder | pIC50 [pic50]
11 | Ac-K(DOTA)VYCE[dP]DWLTWAC-NH2 (linker 4-13 via mXylylene; SMILES CC(=O)N[C@@H](CCCCNC(=O)CN1CCN(CC(=O)O)CCN(CC(=O)O)CCN(CC(=O)O)CC1)C(=O)N[C@H](C(=O)N[C@@H](Cc1ccc(O)cc1)C(=O)N[C@H]1CSCc2cccc(c2)CSC[C@@H](C(N)=O)NC(=O)[C@H](C)NC(=O)[C@H](Cc2c[nH]c3ccccc23)NC(=O)[C@H]([C@@H](C)O)NC(=O)[C@H](CC(C)C)NC(=O)[C@H](Cc2c[nH]c3ccccc23)NC(=O)[C@H](CC(=O)O)NC(=O)[C@H]2CCCN2C(=O)[C@H](CCC(=O)O)NC1=O)C(C)C, also called Ac-Lys(DOTA)-Val-Tyr-[Cys(3MeBn)-Glu-pro-Asp-Trp-Leu-Thr-Trp-Ala-Cys]-NH2) [3BP-3427] | > 8
12 | Ac-VYCEGDWLTWQC-NH2 (linker 3-12 via mXylylene; SMILES CC(=O)N[C@H](C(=O)N[C@@H](Cc1ccc(O)cc1)C(=O)N[C@H]1CSCc2cccc(c2)CSC[C@@H](C(N)=O)NC(=O)[C@H](CCC(N)=O)NC(=O)[C@H](Cc2c[nH]c3ccccc23)NC(=O)[C@H]([C@@H](C)O)NC(=O)[C@H](CC(C)C)NC(=O)[C@H](Cc2c[nH]c3ccccc23)NC(=O)[C@H](CC(=O)O)NC(=O)CNC(=O)[C@H](CCC(=O)O)NC1=O)C(C)C) [3BP-2837] | > 8
13 | {DOTA-Ttds″}-VYCE[dA]DWLTWAC-NH2 (linker 3-12 via mXylylene; not fully specified, also called DOTA-Ttds-Val-Tyr-[Cys(3MeBn)-Glu-ala-Asp-Trp-Leu-Thr-Trp-Ala-Cys]-NH2) [3BP-3279] | > 8
14 | Ac-VYCEGDWLTWAC-NH2 (linker 3-12 via mXylylene; SMILES CC(=O)N[C@H](C(=O)N[C@@H](Cc1ccc(O)cc1)C(=O)N[C@H]1CSCc2cccc(c2)CSC[C@@H](C(N)=O)NC(=O)[C@H](C)NC(=O)[C@H](Cc2c[nH]c3ccccc23)NC(=O)[C@H]([C@@H](C)O)NC(=O)[C@H](CC(C)C)NC(=O)[C@H](Cc2c[nH]c3ccccc23)NC(=O)[C@H](CC(=O)O)NC(=O)CNC(=O)[C@H](CCC(=O)O)NC1=O)C(C)C) [3BP-3058] | > 8
15 | Ac-VYCAGDWLTWQC-NH2 (linker 3-12 via mXylylene; SMILES CC(=O)N[C@H](C(=O)N[C@@H](Cc1ccc(O)cc1)C(=O)N[C@H]1CSCc2cccc(c2)CSC[C@@H](C(N)=O)NC(=O)[C@H](CCC(N)=O)NC(=O)[C@H](Cc2c[nH]c3ccccc23)NC(=O)[C@H]([C@@H](C)O)NC(=O)[C@H](CC(C)C)NC(=O)[C@H](Cc2c[nH]c3ccccc23)NC(=O)[C@H](CC(=O)O)NC(=O)CNC(=O)[C@H](C)NC1=O)C(C)C) [3BP-3052] | > 8
16 | Ac-VYCE[dNMeA]DWLTWAC-NH2 (linker 3-12 via mXylylene; SMILES CC(=O)N[C@H](C(=O)N[C@@H](Cc1ccc(O)cc1)C(=O)N[C@H]1CSCc2cccc(c2)CSC[C@@H](C(N)=O)NC(=O)[C@H](C)NC(=O)[C@H](Cc2c[nH]c3ccccc23)NC(=O)[C@H]([C@@H](C)O)NC(=O)[C@H](CC(C)C)NC(=O)[C@H](Cc2c[nH]c3ccccc23)NC(=O)[C@H](CC(=O)O)NC(=O)[C@@H](C)N(C)C(=O)[C@H](CCC(=O)O)NC1=O)C(C)C, also called Ac-Val-Tyr-[Cys(3MeBn)-Glu-nma-Asp-Trp-Leu-Thr-Trp-Ala-Cys]-NH2) [3BP-3281] | > 8
17 | Ac-VYCE[dA]DWLTWQC-NH2 (linker 3-12 via mXylylene; SMILES CC(=O)N[C@H](C(=O)N[C@@H](Cc1ccc(O)cc1)C(=O)N[C@H]1CSCc2cccc(c2)CSC[C@@H](C(N)=O)NC(=O)[C@H](CCC(N)=O)NC(=O)[C@H](Cc2c[nH]c3ccccc23)NC(=O)[C@H]([C@@H](C)O)NC(=O)[C@H](CC(C)C)NC(=O)[C@H](Cc2c[nH]c3ccccc23)NC(=O)[C@H](CC(=O)O)NC(=O)[C@@H](C)NC(=O)[C@H](CCC(=O)O)NC1=O)C(C)C, also called Ac-Val-Tyr-[Cys(3MeBn)-Glu-ala-Asp-Trp-Leu-Thr-Trp-Gln-Cys]-NH2) [3BP-3046] | > 8
18 | {DOTA-Ttds(3)}-VYCE[dA]DWLTWQC-NH2 (linker 3-12 via mXylylene, also called DOTA-Ttds-Val-Tyr-[Cys(3MeBn)-Glu-ala-Asp-Trp-Leu-Thr-Trp-Gln-Cys]-NH2) [3BP-3270] | > 8
19 | Ac-VYCE[dA]DWLTWAC-NH2 (linker 3-12 via mXylylene; SMILES CC(=O)N[C@H](C(=O)N[C@@H](Cc1ccc(O)cc1)C(=O)N[C@H]1CSCc2cccc(c2)CSC[C@@H](C(N)=O)NC(=O)[C@H](C)NC(=O)[C@H](Cc2c[nH]c3ccccc23)NC(=O)[C@H]([C@@H](C)O)NC(=O)[C@H](CC(C)C)NC(=O)[C@H](Cc2c[nH]c3ccccc23)NC(=O)[C@H](CC(=O)O)NC(=O)[C@@H](C)NC(=O)[C@H](CCC(=O)O)NC1=O)C(C)C, also called Ac-Val-Tyr-[Cys(3MeBn)-Glu-ala-Asp-Trp-Leu-Thr-Trp-Ala-Cys]-NH2) [3BP-3280] | > 8
20 | {DOTA-Ttds″}-VYCEGDWLTWAC-NH2 (linker 3-12 via mXylylene; not fully specified) [3BP-3272] | > 8
